Assay results: the nanobody polyreactivity screen of Harvey et al. (2022)

assay: yeast display, Sf9 membrane polyspecificity reagent, FACS + sequencing; frameworks hold sequencing errors
In short: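 Using colony PCR, genes from sorted yeast display clones were amplified, then sequenced on MiSeq at 2 × 250 and filtered by CDR length. The clones had been stained with 10% biotinylated, detergent-solubilized Sf9 membrane reagent for 1 hour at 4 °C and sorted by FACS into low and high (top ~1%) gates on anti-HA and streptavidin fluorescence. Polyreactivity labels come from the gate of origin.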

Sequence | polyreactivity (PSR sort gate)
QVQLVESGGGLVQAGGSLRLSCAATGLTFKENVMGWYRQAPGKERELVAAISTGASTYYADSVNGRFTISRDNAKNTVYLQMNSLKPEDTAVYYCAKRVTPWYGYWGQGTQVTVSS | high polyreactivity
QVQLVESGGGLVQAGGSLRLSCAATGRIFPYYAMGWYRQAPGKERALVATISSGGRTNYADSVKGRFTISRDNAKNTVYLQMNSLNPEDTAVYYCAADYRKSRVFYGLYYWGQGTQVTVSS | high polyreactivity
QVQLVESGGGLVQAGGSLRLSCAATGRIFRTTAMGWYRQAPGTVRELVAAITFSGGGTYYADSVKGRFTISRDHAKNTGYLQMNSLKPEETAFYYCYADDSYDLSCFEDDYWGQGTQVTVSS | low polyreactivity
QVQLVESGGGLVQAGGSLRLSCAATGRIFSLYAMGWYRQAPGKERELVASITRSGVRTYYADSVKGRFTISRDNAKNTVYLQMNSLKPEDTAVYYCAAPYLYSQGTYYRSSGMDYWGQGTQVTVSS | low polyreactivity
QVQLVESGGGLVQAGGSLRLSCAATGRIFTINAMGWYRQAPGKERELVAGITKSGGITYYADSVKGRFTISRDNAKNTVYLQMNSLKPEDTAVYYCAAPFNRWRARTGFDYWGQGTQVTVSS | high polyreactivity
QVQLVESGGGLVQAGGSLRLSCAATGRIISFYVMGWYRQAPGKERELVAAISLSGGSTYYADSVKGRFTNSRDNAKNTVFLQMNCLKPEDTAVYYCYAVLYARQRERWARYDYWGQGTQVTVSS | high polyreactivity
QVQLVESGGGLVQAGGSLRLSCAATGRISFRILWDGIDRRLGKKGSWLPLLTNTGSTNYADSVKARFTISRDNAKNTVYLQMNSLKPEDTAVYYCNADPTGGSSYPAYFEYDYWGQGTQGTVSS | low polyreactivity
QVQLVESGGGLVQAGGSLRLSCAATGRTFPAYAMGWYRQAPGKERELVAAITINGGSTYYADSVKGRFTISRDNAKNSVYLQMNSLKPEDTAVYYCAAYYASPRHGFWGQGTQVTVSS | low polyreactivity
QVQLVESGGGLVQAGGSLRLSCAATGRTFSVYTMGWYRQAPGKERELVASISRSGGRTYYADSVKGRFTISRDNAKNTVYLQMNSLKPEDTAVYYCAARWYSASALKYYYWGQGTQVTVSS | high polyreactivity
QVQLVESGGGLVQAGGSLRLSCAATGRTFTGNVMGWYRQAPGKERELVAAISRSGTSTYYADSVKGRFTISRDNAKNTVYLQMNSLKPEDTAVYYCAARRTAGYRSGEYDYWGQGTQVTVSS | high polyreactivity
QVQLVESGGGLVQAGGSLRLSCAATGSIFKWYAMGWYRQEPGKERELVSAISKSGGSTYYADSVKGRFTISRDNAKNTVYLQINSLKPEDTAVYYCNAVYIGSRRRYEYDYWGEGTQVTVSS | high polyreactivity
QVQLVESGGGLVQAGGSLRLSCAATGSIFNKYAMGWYRQAPGTEREFVAAITQGGGRTYYADSVKGRFTISRDNAKNTVYLQMNSLKPEDTAVYYCAKPAYHSPDYDYWGQGTQVTVSS | high polyreactivity
QVQLVESGGGLVQAGGSLRLSCAATGSIFQGNVMGWYRPAPGKERELVAGISSSGGRTYYADSVKGRFTISRDNAKNTVYLQMNSLIPEDTAVYYCNAVPSNRQLDYDYWGQGTLVTVSS | high polyreactivity
QVQLVESGGGLVQAGGSLRLSCAATGSIFSLYAMGWYRQSPGKERELVADITYSGGNTYYADSVKGRFTISRDNAKNTVYLHMNSLKPEDTAVYYCNAYYFDYWYWYDYWGQGTQVTVSS | high polyreactivity
QVQLVESGGGLVQAGGSLRLSCAATGSIFSRYAMGWYRQAPGKERELVAAISWRGGGTYYADSVKGRFTISRDNAKNTVYLQMNSLKPVDTAVYYCAADDTPDDSDYWGQGTQVTVSS | low polyreactivity
QVQLVESGGGLVQAGGSLRLSCAATGSIIPFYAMGWYRQATGKEREFVAAISRTGGNTYYADSVKGLLTISRDNAKNTVYLQMNSLKPEDTAVYFCATKRKWTYLSFDYWGQGTQVTVSS | low polyreactivity
QVQLVESGGGLVQAGGSLRLSCAATGSTFDNYAMGWYRQAHGKERELVADITWSGGSTYYADSVKGRFTISRDNAKNTVYLQMNSLKPEDTAVYYCNTAGYYTKYDYWGQGTQVTVSS | low polyreactivity
QVQLVESGGGLVQAGGSLRLSCAATGSTFDRNAMVWYRLAPGKERELVAAISWRGGRTYYADSVKGRFTISRDNAKNTVYLQMNSLKPEDTAVYYCSAKGPGIRSVEGYDYWGQGTQVTVSS | low polyreactivity
QVQLVESGGGLVQAGGSLRLSCAATGSTFGAYAMGWYRQAPGKERELVAAITRRSGSTYYADSVKGRFTISRDNAKNTVYLQMNSLKPEDTAVYYCAARASTIMGSWGQGTQVTVSS | high polyreactivity
QVQLVESGGGLVQAGGSLRLSCAATGSTFHWYAMGWYRQAPGKATELVATITWSGGSTYYADSVKGRFTISRDNAKNTVYLQMNSLKPEDTAVYYCAAETYILLEYDYWGQGTQVTVSS | high polyreactivity
QVQLVESGGGLVQAGGSLRLSCAATGSTFKWYAMGWYIQAPGKERELVDSISWTGASTYYADSVKGRFTISRDKAKNTVYLQMNSLKPEDTAVYYCAADRTYYALLWTGRSRYDYWGQGTQVTVSS | high polyreactivity
QVQLVESGGGLVQAGGSLRLSCAATGSTFLVNAMGWYRQAPGKERELVAAISRGGSTYADSVKGRFTISRDNAKNTVYLQMYSMNPEDTAVYYCNARRYQSYRYYYWGQGTQVTVSS | high polyreactivity

Sequence | polyreactivity (PSR sort gate)
QVQLVESGGGLVQAGGSLRLSCAATGSTFRNNAMGWSRQAPGKERELVAAISRGGGSTYYADSVKGRFTISRDNAKNTVYLQMNSLKPEVTAVYYCARRPTGIYDYWGQGTQVTLSS | high polyreactivity
QVQLVESGGGLVQAGGSLRLSCAATGSTFRYYAMGWYRQAPGKERELVAAISASGSSTYYADSVKGRFTISRHNAKNTVFLQMYSLKPEDTAVYYCATRQFYVRLGYYSWGQGTQVTVSS | high polyreactivity
QVQLVESGGGLVQAGGSLRLSCAATGSTFTSYAMGWYRQAPGKERELVAVISFSGGSTYYADSVKGRFTISRDNAKNTVYLQMNSLKPEDTAVYYCAARIYKRYYWGQGTQVTVSS | high polyreactivity
QVQLVESGGGLVQAGGSLRLSCAATGYTLYYNAMGWYIQAPGKERELVAAITSGGSTSYADSVKGRFTISRDNAKNTVYLQMNRLIPEDTAVYYCAAVFYRRFDYWGQGTQVTVSS | low polyreactivity
QVQLVESGGGLVQAGGSLRLSCAATRSIFFGYAMGWYRQAPGKEREFVAAITASGVRTYYADSVKGRFTISLDNAKNTVYLQMNSLKPEDTAVYYCAARIGTGVLPGRGANSHMDYWGQGTQVTVSS | low polyreactivity
QVQLVESGGGLVQAGGSLRLSCAAYGFILDFYTMGWYRQAPGKERELVAAITNGGSTYYADSVKGRFTISRDNAKNTVYLQMNSLKPEDTAVYYCAAYYRSRHNGYDSWGQGTQVTVSS | low polyreactivity
QVQLVESGGGLVQAGGSLRLSCAAYGFTFASNVMGWYRQAPGKDRELVAAITSGASTNYADSVKGRFTISRDNAKNTVYLQMNSLKPVDTAVYYCAAGRQWYVFYEFDYWGQGTQVTVSS | high polyreactivity
QVQLVESGGGLVQAGGSLRLSCAAYGFTFYPYAMGWYRQAPGKEREVVAASNSGGSTYYADSVKGRFTISRDNAKNTVYLQMNSLKPEDTAVYYCSAYGKRGAVAFYYWGQGTQVTVSS | high polyreactivity
QVQLVESGGGLVQAGGSLRLSCAAYGGIFYSNGMGWYRQAPGKERELVAAITGGDITDYADSVKGRFTISRDNAKNTVYLQMNSLKPEDTAVYYCAVESYPPDYGPRFGSWGQGTQVTVSS | low polyreactivity
QVQLVESGGGLVQAGGSLRLSCAAYGIIFNSYFMGWYRPAPGKERELVAAITGSCGRTYYADSVKGRFTISRDNAKNTVYLQIISLKPEDTAVYYCSATNRGQVYGAWYNSWGQGTQVTVSS | high polyreactivity
QVQLVESGGGLVQAGGSLRLSCAAYGIIFSYNVMGWYRQAPGKEREYVAAITRSGGSTYYADSVKGRFTISRDNAKNTVYLQMNSLKPEDTAVYYCAATTWSGPSRYYDWGQGTQVTVSS | high polyreactivity
QVQLVESGGGLVQAGGSLRLSCAAYGIIIGNNAMGCYRQAPGKERELVAAISRRGGSTYYADSVKGRFTISRDNAKNTVYLQMNSLKPEDTAVYYCAADIYRYNSYDYWGQGTQVTVSS | low polyreactivity
QVQLVESGGGLVQAGGSLRLSCAAYGITFDANAMGWYRQAPGKERELVARISSGGSTNYADSVKGRFTISRDNAKNTVYLQMNSLKPEDTAVYYCAAERIARPTFDYWGQGTQVTVSS | low polyreactivity
QVQLVESGGGLVQAGGSLRLSCAAYGITFRVNPMGWYRQAPGKERELVAAISRGGGSTSYADSVMGRFTISRDNAKNTFYLQMNSLKPEDTAVYFCAREPLAYYVARYDYWGQGTQVTVSS | high polyreactivity
QVQLVESGGGLVQAGGSLRLSCAAYGITFYRNAMGWYRQAPGKEMELVAAITWNGGRTYYADSVKGRFTISRDNAKNTVYLQMNSLKPEDTAVYYCAADSGTLNLASYRYYYWGQGTQVTVSS | low polyreactivity
QVQLVESGGGLVQAGGSLRLSCAAYGLTFPYYVMGWYRPAPGKERELVAAISSSGGSTYYADSVKGRFTISRDNAKNTVYLQMNSLKPEDTAVYYCAAVEIYLAYDLPYWSEMDYWGQGTQVTVSS | low polyreactivity
QVQLVESGGGLVQAGGSLRLSCAAYGNIFYVYVMGWYRQAPGKERELVASITSGASTYYADSVKGRFTISRDNAKNTVYLQMNSLKPEDTAVYYCAAEALGGAGDYSTLYIYDYWGQGTQVTVSS | low polyreactivity
QVQLVESGGGLVQAGGSLRLSCAAYGRIFGWYAMGWYRQAPGKERELVAAISSSTSTYYADSVKGRFTISRDNEKNTVYLQMNSLKPEDTAVYYCNADWYYQRVQYYWYRYDYWGQGTQVTVSS | high polyreactivity
QVQLVESGGGLVQAGGSLRLSCAAYGRIFKYYVMGWYRQAPGKERELVATISSGSGTNYADSVKGRFTISRDNAKNTVYLQMNSLKPEDTAVYYCAARWTPRVRGYNYWGQGTLVTVSS | high polyreactivity
QVQLVESGGGLVQAGGSLRLSCAAYGRIFSYYAMGWYRQAPGKERELVAASSGNGGSTYYADSVKGRFTISRDHAKNTVYLQMNSLKPEDTAVYYCAAVWWSSDWASLYPYSYDHWGQVTQVTVSS | low polyreactivity
QVQLVESGGGLVQAGGSLRLSCAAYGRIIRWYARGWYRPSPGKERALVAAISWSGGSTYYADSVKGRFTISRDNAKNTVYLQLNSLKPEDTAVYYCNTVYAEYDYSTVDYWGQGTQVTVSS | high polyreactivity
